Measured values published in patent publication US20100272709A1 (GENERAL HOSPITAL, published 2010).
Changes are numbered by the printed parent chain. Numbers in names are those of the source. One block for each binder: values may come before it.

How the values were obtained:
Assay in all cases: FLIM/FRET in live COS cells; lifetime of the ECFP donor; self-assembly
EYFP-dynI690K fusion = target: T1, EYFP-dynI690K fusion (UniProt Q05193 1-864)
T1 construct: it is read as I690K; also called YFP-1690K; not shown: EYFP tag
T1 sequence (looked up): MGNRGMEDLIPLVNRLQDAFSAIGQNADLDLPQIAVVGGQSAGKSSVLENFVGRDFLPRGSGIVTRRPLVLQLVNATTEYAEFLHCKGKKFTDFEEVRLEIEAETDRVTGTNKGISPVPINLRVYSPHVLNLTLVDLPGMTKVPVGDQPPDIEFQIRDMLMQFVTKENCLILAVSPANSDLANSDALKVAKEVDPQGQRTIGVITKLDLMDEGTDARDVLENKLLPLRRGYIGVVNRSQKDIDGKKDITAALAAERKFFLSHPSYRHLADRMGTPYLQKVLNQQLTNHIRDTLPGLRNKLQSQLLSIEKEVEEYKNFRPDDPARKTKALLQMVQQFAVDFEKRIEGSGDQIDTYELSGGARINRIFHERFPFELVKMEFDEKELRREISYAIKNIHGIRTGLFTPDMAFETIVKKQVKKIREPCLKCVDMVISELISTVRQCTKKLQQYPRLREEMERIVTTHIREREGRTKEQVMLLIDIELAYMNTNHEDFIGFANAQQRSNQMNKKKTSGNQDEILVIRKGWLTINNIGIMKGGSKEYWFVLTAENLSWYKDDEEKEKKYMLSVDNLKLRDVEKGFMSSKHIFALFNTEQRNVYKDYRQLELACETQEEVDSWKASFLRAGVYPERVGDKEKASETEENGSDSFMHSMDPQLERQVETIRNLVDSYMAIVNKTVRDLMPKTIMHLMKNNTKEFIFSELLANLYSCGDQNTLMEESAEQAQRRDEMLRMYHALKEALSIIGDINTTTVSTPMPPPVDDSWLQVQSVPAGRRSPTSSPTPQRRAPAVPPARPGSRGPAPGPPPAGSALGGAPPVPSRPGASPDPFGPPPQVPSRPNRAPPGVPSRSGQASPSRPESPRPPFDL

[1] = target: T2, EYFP-dynamin wild type fusion (UniProt Q05193 1-864)
T2 construct: also called YFP-WT; EYFP-dynWT; not shown: EYFP tag
T2 sequence (looked up): T1 sequence (looked up) with K690I

EYFP-dynK694A fusion = target: T3, EYFP-dynK694A fusion (UniProt Q05193 1-864)
T3 construct: also called YFP-K694A; not shown: EYFP tag
T3 sequence (looked up): T1 sequence (looked up) with K690I, K694A

Mean Lifetime (γ1) ps (EYFP-dynI690K fusion): 2070 ps
Mean Lifetime (γ1) ps [1]: 1110 ps
B1: ECFP-dynI690K fusion (other, UniProt Q05193 1-864, looked up)
chain: T1 sequence (looked up)
notes: it is read as I690K; also called CFP-1690K; not shown: ECFP tag

Mean Lifetime (γ1) ps (EYFP-dynK694A fusion): 1300 ps
B2: ECFP-dynK694A fusion (other, UniProt Q05193 1-864, looked up)
chain: T1 sequence (looked up) with K690I, K694A
notes: also called CFP-K694A; not shown: ECFP tag
